Values quoted from earlier work, collected in publication PMC11741591.

Molecular target: reelin receptors (ApoER2/VLDLR) (Homo sapiens) (UniProt Q14114)
Sequence of UniProt Q14114 (Q14114 33-826): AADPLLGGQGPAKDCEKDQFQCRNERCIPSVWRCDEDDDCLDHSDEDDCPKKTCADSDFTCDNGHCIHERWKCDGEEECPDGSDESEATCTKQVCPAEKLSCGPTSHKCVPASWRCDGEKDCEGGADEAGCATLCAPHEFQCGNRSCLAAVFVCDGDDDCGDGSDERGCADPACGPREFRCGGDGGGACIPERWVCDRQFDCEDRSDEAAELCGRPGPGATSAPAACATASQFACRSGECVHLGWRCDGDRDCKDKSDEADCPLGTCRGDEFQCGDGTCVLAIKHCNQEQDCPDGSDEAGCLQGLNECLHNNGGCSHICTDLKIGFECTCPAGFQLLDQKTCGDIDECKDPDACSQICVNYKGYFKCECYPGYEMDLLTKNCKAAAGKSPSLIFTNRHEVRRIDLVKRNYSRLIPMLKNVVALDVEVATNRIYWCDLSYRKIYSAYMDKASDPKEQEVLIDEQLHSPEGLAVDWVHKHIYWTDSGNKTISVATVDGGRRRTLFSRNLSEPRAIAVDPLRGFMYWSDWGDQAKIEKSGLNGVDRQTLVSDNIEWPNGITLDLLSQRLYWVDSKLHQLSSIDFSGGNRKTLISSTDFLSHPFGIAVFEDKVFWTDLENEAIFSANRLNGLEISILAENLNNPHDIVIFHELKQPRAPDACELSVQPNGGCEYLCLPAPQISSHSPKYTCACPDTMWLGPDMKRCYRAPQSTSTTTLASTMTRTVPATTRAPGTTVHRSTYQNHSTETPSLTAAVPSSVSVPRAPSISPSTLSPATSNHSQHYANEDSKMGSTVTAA

Sequence of reelin (P78509 26-3460): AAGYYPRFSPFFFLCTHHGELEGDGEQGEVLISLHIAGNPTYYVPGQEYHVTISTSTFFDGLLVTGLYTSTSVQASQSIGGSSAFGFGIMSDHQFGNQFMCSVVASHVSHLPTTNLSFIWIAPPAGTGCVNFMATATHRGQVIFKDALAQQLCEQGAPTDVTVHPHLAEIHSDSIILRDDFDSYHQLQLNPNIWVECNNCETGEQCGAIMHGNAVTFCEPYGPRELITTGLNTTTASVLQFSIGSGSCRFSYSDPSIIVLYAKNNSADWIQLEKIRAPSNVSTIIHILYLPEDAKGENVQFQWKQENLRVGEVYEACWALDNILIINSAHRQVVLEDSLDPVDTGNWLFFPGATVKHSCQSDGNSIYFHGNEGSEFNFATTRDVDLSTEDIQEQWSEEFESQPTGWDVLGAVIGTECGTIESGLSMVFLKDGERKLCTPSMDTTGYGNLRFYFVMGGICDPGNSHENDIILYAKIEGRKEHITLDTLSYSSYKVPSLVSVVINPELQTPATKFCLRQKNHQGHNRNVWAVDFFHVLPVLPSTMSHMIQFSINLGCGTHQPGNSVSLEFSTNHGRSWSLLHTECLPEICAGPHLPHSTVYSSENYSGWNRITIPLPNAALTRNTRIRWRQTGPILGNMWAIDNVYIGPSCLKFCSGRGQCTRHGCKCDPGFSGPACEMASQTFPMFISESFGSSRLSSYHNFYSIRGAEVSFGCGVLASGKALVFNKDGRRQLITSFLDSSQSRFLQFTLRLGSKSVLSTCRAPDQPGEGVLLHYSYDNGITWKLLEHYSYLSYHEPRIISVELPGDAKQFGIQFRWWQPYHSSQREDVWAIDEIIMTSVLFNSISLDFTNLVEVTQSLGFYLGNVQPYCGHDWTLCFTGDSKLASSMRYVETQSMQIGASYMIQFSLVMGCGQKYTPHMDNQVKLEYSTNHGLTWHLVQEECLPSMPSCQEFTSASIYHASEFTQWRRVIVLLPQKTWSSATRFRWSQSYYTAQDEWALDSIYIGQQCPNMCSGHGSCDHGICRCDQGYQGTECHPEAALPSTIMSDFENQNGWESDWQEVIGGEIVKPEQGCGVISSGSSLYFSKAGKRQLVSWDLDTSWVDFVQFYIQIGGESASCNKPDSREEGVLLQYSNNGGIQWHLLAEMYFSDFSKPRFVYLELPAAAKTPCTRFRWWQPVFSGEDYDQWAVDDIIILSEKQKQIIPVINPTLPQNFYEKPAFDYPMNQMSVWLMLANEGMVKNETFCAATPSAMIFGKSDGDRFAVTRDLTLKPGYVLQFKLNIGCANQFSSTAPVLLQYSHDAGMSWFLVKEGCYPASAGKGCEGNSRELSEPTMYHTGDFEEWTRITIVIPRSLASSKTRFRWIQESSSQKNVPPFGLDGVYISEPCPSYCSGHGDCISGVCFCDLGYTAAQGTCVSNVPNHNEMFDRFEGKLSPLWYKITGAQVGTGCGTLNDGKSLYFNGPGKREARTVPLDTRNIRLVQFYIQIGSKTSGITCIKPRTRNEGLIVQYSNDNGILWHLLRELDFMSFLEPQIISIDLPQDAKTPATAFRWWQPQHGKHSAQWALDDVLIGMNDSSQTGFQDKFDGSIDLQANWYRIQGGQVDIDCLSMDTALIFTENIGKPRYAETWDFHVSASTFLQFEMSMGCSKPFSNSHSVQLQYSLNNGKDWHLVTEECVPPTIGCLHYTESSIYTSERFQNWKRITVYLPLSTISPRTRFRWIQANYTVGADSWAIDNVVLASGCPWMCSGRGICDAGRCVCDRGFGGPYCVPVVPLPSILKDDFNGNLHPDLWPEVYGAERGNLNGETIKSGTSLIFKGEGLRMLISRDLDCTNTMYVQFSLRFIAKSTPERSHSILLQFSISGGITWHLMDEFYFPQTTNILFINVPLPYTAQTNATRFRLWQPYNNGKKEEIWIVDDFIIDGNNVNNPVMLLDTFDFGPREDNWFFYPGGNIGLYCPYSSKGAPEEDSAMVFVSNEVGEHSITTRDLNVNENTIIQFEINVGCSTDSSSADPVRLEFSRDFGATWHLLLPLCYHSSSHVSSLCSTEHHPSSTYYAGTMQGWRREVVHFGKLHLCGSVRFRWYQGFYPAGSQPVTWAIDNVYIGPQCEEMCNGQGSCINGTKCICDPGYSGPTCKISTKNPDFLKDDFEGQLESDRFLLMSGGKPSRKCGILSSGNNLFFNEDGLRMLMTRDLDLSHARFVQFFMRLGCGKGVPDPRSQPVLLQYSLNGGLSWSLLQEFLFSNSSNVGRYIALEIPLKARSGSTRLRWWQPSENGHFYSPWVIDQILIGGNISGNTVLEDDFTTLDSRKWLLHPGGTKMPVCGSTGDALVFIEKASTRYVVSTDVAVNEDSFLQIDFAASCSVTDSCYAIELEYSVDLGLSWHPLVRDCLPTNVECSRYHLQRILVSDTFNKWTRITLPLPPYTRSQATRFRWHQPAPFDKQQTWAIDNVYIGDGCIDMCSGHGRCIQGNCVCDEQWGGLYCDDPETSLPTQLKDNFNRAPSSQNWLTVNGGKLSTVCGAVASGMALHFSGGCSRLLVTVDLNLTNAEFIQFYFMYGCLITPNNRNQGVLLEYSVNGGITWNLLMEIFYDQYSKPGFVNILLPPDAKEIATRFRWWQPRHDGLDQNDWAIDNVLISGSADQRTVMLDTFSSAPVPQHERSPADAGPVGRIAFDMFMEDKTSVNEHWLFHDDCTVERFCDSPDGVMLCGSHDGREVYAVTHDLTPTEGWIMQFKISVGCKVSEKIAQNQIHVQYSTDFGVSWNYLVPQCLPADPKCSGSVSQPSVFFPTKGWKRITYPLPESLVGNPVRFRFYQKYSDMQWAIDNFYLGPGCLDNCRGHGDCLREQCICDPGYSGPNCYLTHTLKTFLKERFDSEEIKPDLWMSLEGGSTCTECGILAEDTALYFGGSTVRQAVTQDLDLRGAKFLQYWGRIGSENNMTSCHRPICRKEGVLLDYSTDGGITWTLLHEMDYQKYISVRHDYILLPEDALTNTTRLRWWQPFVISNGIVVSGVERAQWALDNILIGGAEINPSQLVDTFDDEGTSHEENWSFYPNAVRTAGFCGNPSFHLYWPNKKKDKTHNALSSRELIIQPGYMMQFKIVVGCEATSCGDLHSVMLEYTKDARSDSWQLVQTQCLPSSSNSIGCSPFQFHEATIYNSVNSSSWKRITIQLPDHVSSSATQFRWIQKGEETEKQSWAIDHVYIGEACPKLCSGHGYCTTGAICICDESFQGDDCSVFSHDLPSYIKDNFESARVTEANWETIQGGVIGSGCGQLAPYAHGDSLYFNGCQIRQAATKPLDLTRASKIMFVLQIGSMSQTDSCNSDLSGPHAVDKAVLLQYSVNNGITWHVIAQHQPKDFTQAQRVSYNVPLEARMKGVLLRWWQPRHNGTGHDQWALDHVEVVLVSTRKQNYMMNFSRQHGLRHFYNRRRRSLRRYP

Question: For reelin (from UniProt P78509), which Kd is on record?
Answer: 0.5 nM
